Measurements published in patent US10677783B2, “Method for evaluating effect of cytokine on metabolic activity of cytochrome P450, and drug screening method” (Corning Incorporated, priority 2012, dated 2020).

Tests used:
Assay type in all cases: cell-based, human
CYP3A4 [1] = experiment: Amount of CYP3A4 protein by western blotting in spheroid-shaped FLC-4 cells (example, MICRO-SPACE)
From the text: (§1) A plurality of culture chambers 10a are formed on the bottom culture surface of each well 21a. Each culture chamber 10a includes culture rooms 11a each having the equivalent diameter D of 200 μm and the height H of 100 μm. The width W of each wall 12a is 10 μm.
(§2) As cells to be cultured, FLC-4 cells which are established hepatocyte cell lines […] were used.
(§3) Epidermal Growth Factor (EFG) was used as the cytokine.
(§4) DMEM/F12 (DMEM/E12 FBS(−)) containing no serum was used as a solvent for each test solution.
(§5) To study the cytokine concentrations of the second and third test solutions, test solutions respectively having EGF concentrations of 0.1 ng/mL, 1 ng/mL, and 10 ng/mL were prepared. Note that the cells were cultured in each test solution in advance to obtain a cell survival rate, and it was confirmed that the cell survival rate at these concentrations was 80% or more.
The total amount of old culture medium was removed from each well by using a pipette (culture medium removing process). […]
(§6) The cells corresponding to three to six wells were sonicated by a Lysis buffer containing 0.1% protease inhibitor cocktail and 1 mM PMSF (Phenylmethyl sulfonyl fluoride). […] ImmunoStar LD (Wako Pure Chemical Industries, Ltd.) was used as protein and was detected using LAS-1000 plus (Fujifilm, Tokyo).

CYP3A4 [2] = experiment: Amount of CYP3A4 protein by western blotting in FLC-4 cells on flat 24-well plate (comparative example, CONFLUENT)
Procedure: As the culture chamber, a commercially-available 24-well plate having a flat culture surface was used. The cell culture grade was used as the grade for the culture plate.
Except for the above-mentioned conditions, the comparative example was carried out under the same conditions as those for the example.
as §3, §4, §5
(§7) The total amount of old culture medium was removed from each well by using a pipette (culture medium removing process).
Each test solution for studying the cytokine concentration was added to each well (test solution addition process). […]
as §6

CYP3A4 [3] = experiment: CYP3A4 mRNA expression by RT-qPCR in spheroid-shaped FLC-4 cells (example, MICRO-SPACE); details: EGF 10 ng/mL, drug-free vs cytokine-free and drug-free; FIG. 20
From the text: as §1, §2
As a culture medium, a DMEM/F 12 culture medium containing 10% fetal bovine serum (FBS) was used. A cell suspension was adjusted at a cell seeding density of 16×10^5 cells/mL.
The cells were cultured in a CO2 incubator for 10 to 11 days. The culture medium was replaced once every three days.
as §7
A test solution or a control solution was added to each well (test solution addition process).
The cells were incubated in a CO2 incubator for eight hours, 24 hours, or 48 hours at 37° C. (contact process). […]
The analysis was made using a total amount of 20 μL of reaction liquid containing 9.6 μL of EagleTaq Master Mix with ROX (Roche, Branchburg, N.J., USA), 0.96 μL of 20× Assays-on-Demand™ Gene Expression Assay Mix (Applied Biosystems), 7.1 μL of sterilized MiliQ water, and 1.8 μL of cDNA diluted by a factor of 5, and the reaction liquid was measured by Real-time PCR.

FLC-4 cells = experiment: Cell survival rate of cells cultured in cytokine test solutions; details: EGF concentrations of 0.1, 1 and 10 ng/mL
Procedure: as §5

[4] = EGF 0, 0.1, 1, 10 ng/mL, western blotting

B1: Epidermal Growth Factor (protein, UniProt P01133 23-1207, looked up)
Pro-epidermal growth factor: PQHWSCPEGTLAGNGNSTCVGPAPFLIFSHGNSIFRIDTEGTNYEQLVVDAGVSVIMDFHYNEKRIYWVDLERQLLQRVFLNGSRQERVCNIEKNVSGMAINWINEEVIWSNQQEGIITVTDMKGNNSHILLSALKYPANVAVDPVERFIFWSSEVAGSLYRADLDGVGVKALLETSEKITAVSLDVLDKRLFWIQYNREGSNSLICSCDYDGGSVHISKHPTQHNLFAMSLFGDRIFYSTWKMKTIWIANKHTGKDMVRINLHSSFVPLGELKVVHPLAQPKAEDDTWEPEQKLCKLRKGNCSSTVCGQDLQSHLCMCAEGYALSRDRKYCEDVNECAFWNHGCTLGCKNTPGSYYCTCPVGFVLLPDGKRCHQLVSCPRNVSECSHDCVLTSEGPLCFCPEGSVLERDGKTCSGCSSPDNGGCSQLCVPLSPVSWECDCFPGYDLQLDEKSCAASGPQPFLLFANSQDIRHMHFDGTDYGTLLSQQMGMVYALDHDPVENKIYFAHTALKWIERANMDGSQRERLIEEGVDVPEGLAVDWIGRRFYWTDRGKSLIGRSDLNGKRSKIITKENISQPRGIAVHPMAKRLFWTDTGINPRIESSSLQGLGRLVIASSDLIWPSGITIDFLTDKLYWCDAKQSVIEMANLDGSKRRRLTQNDVGHPFAVAVFEDYVWFSDWAMPSVMRVNKRTGKDRVRLQGSMLKPSSLVVVHPLAKPGADPCLYQNGGCEHICKKRLGTAWCSCREGFMKASDGKTCLALDGHQLLAGGEVDLKNQVTPLDILSKTRVSEDNITESQHMLVAEIMVSDQDDCAPVGCSMYARCISEGEDATCQCLKGFAGDGKLCSDIDECEMGVPVCPPASSKCINTEGGYVCRCSEGYQGDGIHCLDIDECQLGEHSCGENASCTNTEGGYTCMCAGRLSEPGLICPDSTPPPHLREDDHHYSVRNSDSECPLSHDGYCLHDGVCMYIEALDKYACNCVVGYIGERCQYRDLKWWELRHAGHGQQQKVIVVAVCVVVLVMLLLLSLWGAHYYRTQKLLSKNPKNPYEESSRDVRSRRPADTEDGMSSCPQPWFVVIKEHQDLKNGGQPVAGEDGQAADGSMQPTSWRQEPQLCGMGTEQGCWIPVSSDKGSCPQVMERSFHMPSYGTQTLEGGVEKPHSLLSANPLWQQRALDPPHQMELTQ
modifications: Pro-epidermal growth factor
notes: Epidermal Growth Factor used as the cytokine
function of CYP3A4 (amount of CYP3A4 protein, bands), concentration dependency (CYP3A4 [1]; [4]): decreases depending on the concentration | amount of CYP3A4 protein, second test solution versus first test solution (CYP3A4 [1]; EGF 10 ng/mL (M10) vs 0 ng/mL (M0), FIG. 19): M0 is greater than M10 | function of CYP3A4 (amount of CYP3A4 protein, bands), concentration dependency (CYP3A4 [2]; [4]): the concentration dependency was not confirmed | amount of CYP3A4 protein, second test solution versus first test solution (CYP3A4 [2]; EGF 10 ng/mL (C10) vs 0 ng/mL (C0), FIG. 19): C0 and C10 are nearly equal | value of the metabolic function of CYP3A4 (mRNA expression level), second test solution versus first test solution (CYP3A4 [3]): lower | cell survival rate (FLC-4 cells): ≥ 80%
